Values belong to the binder of their own block, whether it stands above or below them.
Key:
[1] = target: T1, pituitary adenylate cyclase-activating peptide, 38-amino acid peptide (PACAP38) (human, not fully specified); test: cell-based or functional assay
T1 peptide: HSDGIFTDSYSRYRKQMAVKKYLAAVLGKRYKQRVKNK

[2] = target: T2, vasoactive intestinal peptide (VIP) (human); test: SPR; target VIP
T2 peptide: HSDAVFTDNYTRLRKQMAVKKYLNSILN
Procedure: (§1) In brief, antibody and peptide interaction was determined on a Biacore S200 (GE Healthcare) by method previously described (Andreu and Gomes 2002). An anti-Human IgG Fc capture antibody was immobilized on a CM5 biosensor chip via standard amine coupling. Anti-PACAP antibodies were injected and captured to 200 to 400 response units (RU),). PACAP38, PACAP27 and VIP were diluted in HBS-EP+buffer containing 0.1% w/v BSA (Bovostar, catalog number BSAS1.0) and 0.15 M NaCl (Sigma-Aldrich catalog number S7653), pH 7.4. Binding kinetics of antibodies were determined by injection of two-fold serial dilutions of PACAPs (12 nm to 0 nM) and VIP (1200 nM to 0 nM) in running buffer at 37° C. with a flow rate of 40 uL/min for 2 min followed by a dissociation for 10 minutes. For subsequent cycles, the chip was regenerated using 0.85% phosphoric acid. Data was analysed with the Biacore S200 Evaluation Software (ver 1.0). Association rate (kₐ) and dissociation rate (kd) constants were determined using a simple one-to-one Langmuir binding model and used to calculate the equilibrium dissociation constant (KD).
(§2) The selectivity of antibody 890C was assessed by comparing the inhibition of PACAP38-signalling to inhibition of VIP-signalling in a cyclic AMP (cAMP) measuring cell-based functional assay.

[3] = target: T1, pituitary adenylate cyclase-activating …; test: SPR (Biacore) off-rate ranking, antibody captured from supernatant, single injection of 33.3 nM PACAP38
Procedure: as §1, with “Binding kinetics of antibodies were determined by injection of two-fold serial dilutions of PACAPs (12 nm to 0 nM) and VIP (1200 nM to 0 nM) in running buffer at 37° C. with a flow rate of 40 uL/min for 2 min followed by a dissociation for 10 minutes.” left out

[4] = target: T3, pituitary adenylate cyclase-activating peptide, 27-amino acid peptide (PACAP27) (human, not fully specified); test: SPR; target PACAP27
T3 peptide: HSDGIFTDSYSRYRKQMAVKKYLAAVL
Procedure: as §1, §2

[5] = target: T4, Glucagon-Like Peptide 1 (GLP-1); test: SPR (Biacore), captured antibody, 37.5 nM peptide injected at 37 C, relative response after 15 sec dissociation
T4 peptide: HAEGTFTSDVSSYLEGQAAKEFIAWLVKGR
Procedure: (§3) The anti-PACAP antibodies, e.g., 890C, were tested against related peptides in the Secretin Glucagon family (Table 10) to determine the presence and extent of any off-target binding. Nine bioactive peptides in the glucagon superfamily are: PACAP, VIP, glucagon, Glucagon-Like Peptides (GLP-1, GLP-2), Growth Hormone Releasing Factor (GRF or GHRF), Peptide Histidine Methionine (PHM), secretin, and Gastric inhibitory polypeptide (GIP). Following capture of antibodies as described in example 4, the antibody and the peptide interaction was measured by injection of 37.5 nM of each peptide diluted in buffer at 37° C. with a flow rate of […] for 2 min followed by a dissociation phase of 4-5 min. Samples were injected in a multi-cycle manner over freshly captured anti-PACAP antibody, by regenerating the capture surfaces with two injections of 0.85% phosphoric acid at a flow rate of 30 μL/min.
as §2

[6] = target: T5, Peptide Histidine Methionine (PHM); test: as above
T5 peptide: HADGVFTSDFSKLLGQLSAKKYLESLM
Procedure: as §3, §2

Secretin = target: T6, Secretin; test: as above
T6 construct: the listing entry is to be used
T6 peptide: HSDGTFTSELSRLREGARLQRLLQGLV
Procedure: as §3, §2

Glucagon = test: as above
Glucagon, sequence (peptide, as listed by the source): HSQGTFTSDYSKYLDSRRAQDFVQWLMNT
Procedure: as §3, §2

[7] = target: T7, Growth Hormone Releasing Factor (GRF or GHRF); test: as above
T7 construct: the listing entry is to be used
T7 peptide: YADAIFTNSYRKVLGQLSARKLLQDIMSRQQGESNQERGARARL
Procedure: as §3, §2

[8] = target: T8, Glucagon-Like Peptide 2 (GLP-2); test: as above
T8 peptide: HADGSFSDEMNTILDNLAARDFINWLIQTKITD
Procedure: as §3, §2

[9] = target: T9, Gastric inhibitory polypeptide (GIP); test: as above
T9 peptide: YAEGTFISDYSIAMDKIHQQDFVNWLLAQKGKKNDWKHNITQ
Procedure: as §3, §2

[10] = target: T1, pituitary adenylate cyclase-activating …; test: cell-based or functional assay
[11] = target: T1, pituitary adenylate cyclase-activating …; test: SPR; target PACAP38
Procedure: as §1, §2

[12] = target: T1, pituitary adenylate cyclase-activating …; test: SPR (Biacore), 37 C, antibody captured by anti-human IgG Fc, PACAP-38 as analyte
Procedure: as §1

[13] = target: T1, pituitary adenylate cyclase-activating …; test: cell-based or functional assay
[14] = target: T1, pituitary adenylate cyclase-activating …; test: cell-based or functional assay
[15] = target: T2, vasoactive intestinal peptide (VIP); test: cell-based or functional assay
[16] = target: T3, pituitary adenylate cyclase-activating …; test: SPR (Biacore S200), 37 C, captured antibody, two-fold dilutions of peptide, 1:1 Langmuir model
[17] = target: T1, pituitary adenylate cyclase-activating …; test: as above
[18] = target: T2, vasoactive intestinal peptide (VIP); test: SPR (Biacore S200), 37 C, captured antibody, steady state binding

selectivity, inhibition of PACAP38-induced cAMP production (PAC1 cells) versus VIP-induced cAMP production (VPAC1 cells) [1]: > 1000 fold | Kd [2]: 390 nM | Kd [3]: 0.0284 nM | koff [3]: 0.000671 s⁻¹ | kon [3]: 2.36e+07 M⁻¹ s⁻¹ | Kd [4]: 0.218 nM | binding result [5]: no binding (tested: 37.5 nM) | binding result [6]: no binding (tested: 37.5 nM) | binding result (Secretin): no binding (tested: 37.5 nM) | binding result (Glucagon): no binding (tested: 37.5 nM) | binding result [7]: no binding (tested: 37.5 nM) | binding result [8]: no binding (tested: 37.5 nM) | binding result [9]: no binding (tested: 37.5 nM) | IC50 (nM), PACAP-induced cAMP accumulation in CHO-K1 receptor cell lines (cAMP-Glo) [10]: 0.32 nM | Kd [11]: 0.054 nM | Kd [12]: 0.0284 nM | koff [12]: 0.000671 s⁻¹ | kon [12]: 2.36e+07 M⁻¹ s⁻¹ | IC50 (nM), inhibition of PACAP-induced cAMP accumulation [13]: 0.32 nM | IC50 (read off the curve), PACAP38-induced cAMP production in CHO-K1 cells expressing PAC1 [14]: ~0.4 nM | IC50 (read off the curve), VIP-induced cAMP production in CHO-K1 cells expressing VPAC1 [15]: ~600 nM | fold shift of the VIP/VPAC1 inhibition curve relative to the PACAP/PAC1 inhibition curve (selectivity) [15]: 1400 fold
B1: anti-PACAP antibody 890C (antibody, human IgG4 S228P, kappa, V domains shown)
VH: EVQLVQSGAEVKKPGSSVKVSCKASGGTFSDVYMHWVRQAPGQGLEWMGLIYPIFADTRYAQKFQGRVTITADESTSTAYMELSSLRSEDTAVYYCAIDQDGSFAYWGQGTLVTVSS
VL: DIVMTQSPDSLAVSLGERATINCKSSQSLLDADGKTYLNWLQQKPGQPPKRLIYWASTRESGVPDRFSGSGSGTDFTLTISSLQAEDVAVYYCWQGTWFDLTFGGGTKVEIKR
notes: LC S(27E)A, G29, L50W, V51A, K53T, L54R, D55E, H93W, P95D

Kd [3]: 0.017 nM | koff [3]: 0.000566 s⁻¹ | kon [3]: 3.33e+07 M⁻¹ s⁻¹ | Kd [12]: 0.017 nM | koff [12]: 0.000566 s⁻¹ | kon [12]: 3.33e+07 M⁻¹ s⁻¹ | IC50 (nM), inhibition of PACAP-induced cAMP accumulation [13]: 0.15 nM | Kd [16]: 0.154 nM | koff [16]: 0.00101 s⁻¹ | kon [16]: 6.58e+06 M⁻¹ s⁻¹ | Kd [17]: 0.0328 nM | koff [17]: 0.000565 s⁻¹ | kon [17]: 1.72e+07 M⁻¹ s⁻¹ | Kd [18]: 225 nM
B2: anti-PACAP antibody 605C (antibody, V domains shown)
VH: EVQLVQSGAEVKKPGSSVKVSCKASGGTFSDSYMHWVRQAPGQGLEWMGLIYPIFADTRYAQKFQGRVTITADESTSTAYMELSSLRSEDTAVYYCAIDQDGSFAYWGQGTLVTVSS
VL: DIVMTQSPDSLAVSLGERATINCKSSQSLLDADGKTYLNWLQQKPGQPPKRLIYWASTRESGVPDRFSGSGSGTDFTLTISSLQAEDVAVYYCWQGTWFDLTFGGGTKVEIK
